Source: article PMC2930062 (Journal of cellular biochemistry, 2010)

Target: T1, RANBP17^1-252, GAL4 DNA binding domain fusion (pM) (human (cDNA library of DU145 cells), UniProt Q9H2T7 1-252)
T1 sequence (looked up): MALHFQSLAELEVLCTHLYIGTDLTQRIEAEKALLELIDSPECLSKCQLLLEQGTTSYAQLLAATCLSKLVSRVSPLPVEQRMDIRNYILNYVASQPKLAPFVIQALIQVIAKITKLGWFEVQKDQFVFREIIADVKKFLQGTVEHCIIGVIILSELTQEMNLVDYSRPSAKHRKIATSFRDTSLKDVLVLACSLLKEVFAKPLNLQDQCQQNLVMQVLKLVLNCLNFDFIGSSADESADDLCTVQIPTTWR
Assay: two-hybrid

B1: E12^508-654, VP16 activation domain fusion (pVP16) (domain or fragment, human, UniProt P15923 508-654, looked up)
chain: TSAADHSEEEKKELKAPRARTSPDEDEDDLLPPEQKAEREKERRVANNARERLRVRDINEAFKELGRMCQLHLNSEKPQTKLLILHQAVSVILNLEQQVRERNLNPKAACLKRREEEKVSGVVGDPQMVLSAPHPGLSEAHNPAGHM
fold increase in luciferase activity against empty vector transfectants: 5.7 fold
